Results: patent publication US20100055034A1 (DOMPE PHA MA S P A, published 2010)

Key:
[1] = molecular target: T1, human folate receptor alpha as expressed on cells (human, UniProt P15328 25-234); experiment: cell ELISA on fixed IGROV1 cells, F(ab')2; KD = concentration at half of plateau signal
T1 construct: GPI-anchored on the cell surface; Natural expression on OVCAR3 and IGROV1 ovarian carcinoma cells, transfected into A431 cells (A431-FR); also called alpha FR; FR-alpha
Description: (§1) 4×10⁴ cells (human ovarian carcinoma cell lines OVCAR3 (ATCC) and IGROVI (a gift from Dr J. Bénard, Institut Gustave Roussy, Villejuif, France), and A431-FR⁽¹⁷⁾ cells which are human epidermoid carcinoma cells transfected with folate receptor alpha,) were seeded in each well of a 96 wells format plate, and grown until a confluent monolayer was obtained. Cells were fixed, for 5 minutes, at room temperature with 0.1% glutaraldehyde in PBS. Plates were washed twice with PBS, then once (5 minutes) with 0.1M glycine in PBS+0.02% NaN₃, successively five times with PBS and finely with PBS containing 1% BSA and 0.02% NaN₃.
(§2) An anti-human IgG (Fab specific, Sigma) peroxidase conjugated diluted 1:1000 in PBS+0.03% BSA was used to reveal antibodies fragment binding.
(§3) Since no signal could be detected on the A431 mock cells which are cells transfected with the empty vector, as compared to the cells transfected with FR-alpha, both AFRA and C4 antibodies were judged to be specific for the alpha folate receptor. […] Table I reports ELISA determination of KD values of F(ab′)₂ of C4 and AFRA antibodies fragments. The KD was determined as to be the concentration at which half of the ELISA plateau signal is obtained.

[2] = molecular target: T1, human folate receptor alpha as …; experiment: cell ELISA on fixed OVCAR3 cells, F(ab')2; KD = concentration at half of plateau signal
Description: as §1, §2, §3

[3] = molecular target: T1, human folate receptor alpha as …; experiment: cell ELISA on fixed A431-FR cells, F(ab')2; KD = concentration at half of plateau signal
Description: as §1, §2, §3

[4] = molecular target: T2, recombinant soluble human alpha folate receptor with His6 purification tag (human, UniProt P15328 25-232); experiment: SPR (BIAcore), recombinant FR amine-coupled to CM5 chip, Fab monomer 3.125-200 nM in flow
T2 construct: Expressed in CHO-K1 cells and purified from the supernatant; also called soluble alpha FR; recombinant FR
T2 sequence (P15328 other isoform, or with tags, fused parts or gaps limits assumed): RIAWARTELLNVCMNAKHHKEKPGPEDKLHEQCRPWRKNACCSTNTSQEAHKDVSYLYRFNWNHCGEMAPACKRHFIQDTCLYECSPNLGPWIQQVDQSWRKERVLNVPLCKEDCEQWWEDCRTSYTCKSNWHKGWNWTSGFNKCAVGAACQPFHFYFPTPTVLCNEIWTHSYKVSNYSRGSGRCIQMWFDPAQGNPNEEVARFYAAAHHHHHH
Description: (§4) FIG. 3 (BIAcore binding): Determination of antibody fragments binding parameters on alpha folate receptor. For this several concentrations of Fab monomer (from 3 to 200 nM) were flowed in the sensorchip cell previously coated with the recombinant receptor and binding was registered for 30 minutes. After this time period washing was monitored for another twenty minutes.
(§5) The target protein was coated on […] BIAcore sensorchip and several concentrations of both antibody fragments were used to determine the binding kinetics. In particular, recombinant FR was covalently bound to a CM5 sensor chip using the amine coupling kit (Pharmacia) with an antigen concentration of 0.6 μg/ml in 10 mM sodium acetate, pH 4.8 yielding a surface of 280 RU. Residual activated groups were blocked by injection of […] ethanolamine (1.0 M pH 8.5). […] Evaluation was performed for at least 30 minutes. Subsequently, detachment of residual antibody bound to the sensor chip was performed with 100 mM Glycine Buffer pH 2.7.

[5] = molecular target: T2, recombinant soluble human alpha folate …; experiment: SPR (BIAcore), KD of AFRA Fab against KD of C4 Fab
Description: as §4, §5

T1 sequence (P15328 25-234): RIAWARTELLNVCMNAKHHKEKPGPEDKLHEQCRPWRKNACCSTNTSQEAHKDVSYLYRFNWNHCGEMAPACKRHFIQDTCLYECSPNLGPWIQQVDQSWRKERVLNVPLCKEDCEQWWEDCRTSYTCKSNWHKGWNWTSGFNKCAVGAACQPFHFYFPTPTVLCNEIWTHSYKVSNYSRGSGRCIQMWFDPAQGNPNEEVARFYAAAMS

Binder	Kd [1] [nM]	Kd [2] [nM]	Kd [3] [nM]	Kd [4] [nM]	fold lower KD than C4 [5] [fold]
C4 F(ab')2 natural dimer (other, C-terminal hinge cysteine disulfide-bonded to the second Fab', The preparation is heavily contaminated: 29% L2H2 dimer, 43% L2H pseudo-dimer and 25% free heavy chain; For heavy chain position 1 see the note of m2; also called F(ab')2-C4) light: QSALTQPASVSGSPGQSITISCTGTSSDVGSYNLVSWYQQHPGKAPKLMIYEGSKRPSGVSNRFSGSKSGNAASLTISGLQAEDEADYYCQSYDSSLSVVFGGGTKLTVLGQPKAAPSVTLFPPSSEELQANKATLVCLISDFYPGAVTVAWKADSSPVKAGVETTTPSKQSNNKYAASSYLSLTPEQWKSHRGYSCQVTHEGSTVEKTVAPTECS heavy: QVQLVESGGGLVQPGRSLRLSCTTSGFTFGDYAMIWARQAPGKGLEWVSSISSSSSYIYYADSVKGRFTISRDNAKNSLYLQMNSLRAEDTAVYYCARERYDFWSGMDVWGKGTTVTVSSASTKGPSVFPLAPSSKSTSGGTAALGCLVKDYFPEPVTVSWNSGALTSGVHTFPAVLQSSGLYSLSSVVTVPSSSLGTQTYICNVNHKPSNTKVDKKDKTSC	118	11	1.2	–	–
AFRA F(ab')2 natural dimer (other, C-terminal hinge cysteine disulfide-bonded to the second Fab', F(ab')2 made by natural oxidation of Fab'; By SDS-PAGE the preparation is 80% L2H2 dimer, 16% L2H and 4% free heavy chain; For Q1N see the note of m1; also called F(ab')2-AFRA; AFRA dimer) light: EIVLTQSPASLAVSPGQRATITCRASESVSFLGINLIHWYQQKPGQPPKLLIYQASNKDTGVPARFSGSGSGTDFTLTINPVEANDTANYYCLQSKNFPPYTFGQGTKLEIKRTVAAPSVFIFPPSDEQLKSGTASVVCLLNNFYPREAKVQWKVDNALQSGNSQESVTEQDSKDSTYSLSSTLTLSKADYEKHKVYACEVTHQGLSSPVTKSFNRGEC heavy: NVQLVESGGGLVQPGRSLRLSCTTSGFTFGDYAMIWARQAPGKGLEWVSSISSSSSYIYYADSVKGRFTISRDNAKNSLYLQMNSLRAEDTAVYYCARERYDFWSGMDVWGKGTTVTVSSASTKGPSVFPLAPSSKSTSGGTAALGCLVKDYFPEPVTVSWNSGALTSGVHTFPAVLQSSGLYSLSSVVTVPSSSLGTQTYICNVNHKPSNTKVDKKDKTSC	57	26	2.5	–	–
AFRA Fab fragment (Anti Folate Receptor Alpha human Fab, kappa light chain) (Fab, V domains shown, Made in E. coli periplasm; also called AFRA monomer; Fab AFRA) VH: NVQLVESGGGLVQPGRSLRLSCTTSGFTFGDYAMIWARQAPGKGLEWVSSISSSSSYIYYADSVKGRFTISRDNAKNSLYLQMNSLRAEDTAVYYCARERYDFWSGMDVWGKGTTVTVSS VL: EIVLTQSPASLAVSPGQRATITCRASESVSFLGINLIHWYQQKPGQPPKLLIYQASNKDTGVPARFSGSGSGTDFTLTINPVEANDTANYYCLQSKNFPPYTFGQGTKLEIKR	–	–	–	43.9	3
C4 Fab fragment (human anti-folate receptor alpha Fab, lambda light chain) (Fab, V domains shown, It says only that C4 and AFRA share the heavy chain except for Q1N in AFRA, so C4 has Q at position 1; also called Fab C4) VH: QVQLVESGGGLVQPGRSLRLSCTTSGFTFGDYAMIWARQAPGKGLEWVSSISSSSSYIYYADSVKGRFTISRDNAKNSLYLQMNSLRAEDTAVYYCARERYDFWSGMDVWGKGTTVTVSS VL: QSALTQPASVSGSPGQSITISCTGTSSDVGSYNLVSWYQQHPGKAPKLMIYEGSKRPSGVSNRFSGSKSGNAASLTISGLQAEDEADYYCQSYDSSLSVVFGGGTKLTVLG	–	–	–	168	–
